Data on two molecules can be found in patent publication CN113754773A (SUNSHINE GUOJIAN PHARMACEUTICAL SHANGHAI CO LTD, dated 2021).

By EC50 is commonly meant the concentration giving half of the maximal effect.

In assay [1] the target is PD-L1 on PD-L1 aAPC/CHO-K1 cells (Promega PD-1/PD-L1 Blockade Bioassay) (UniProt Q9NZQ7 19-290, limits assumed). The experiment in a line: cell-based or functional assay.
The target of another assay is T1, PDL1-ECD-His蛋白 (human, UniProt Q9NZQ7 19-238).
T1 construct: extracellular domain; Made in house in HEK-293E cells; also called PD-L1抗原
Description: ELISA, PDL1-ECD-His coated, HRP mouse anti-human Fab.

Another assay has as its target T2, PD-L1 on N87-PDL1 cells (UniProt Q9NZQ7 19-290, limits assumed).
T2 construct: whole, on cells; also called N87-PDL1细胞
The experiment in a line: flow cytometry on N87-PDL1 cells, goat anti-human IgG-FITC. A general note: Flow cytometry measures light scatter and fluorescence of single cells or particles in a stream.

For assay [2], the target named is PD-1 on PD1 effector cells (Promega PD-1/PD-L1 Blockade Bioassay) (UniProt Q15116 25-288, limits assumed). Description: cell-based or functional assay.
The target in assay [3] is T3, PD1-ECD-hFc蛋白 (human, UniProt Q15116 25-170).
T3 construct: extracellular domain; Made in house in HEK-293E cells; also called PD-1抗原; not shown: hFc at the C-terminus
The experiment in a line: ELISA, PD1-ECD-hFc coated, HRP mouse anti-human Fab. In general terms: In an ELISA, binding on a coated surface is turned into a signal by an enzyme label.

In assay [4] the target is T4, PD-1 on CHO stable cells (PD-1/CHO) (UniProt Q15116 25-288, limits assumed).
T4 construct: whole, on cells; also called 细胞表面表达PD-1的CHO稳转细胞; PD-1/CHO细胞
Description: flow cytometry on CHO cells stably expressing PD-1, goat anti-human IgG-FITC.

Assay [5] has as its target T3, PD1-ECD-hFc蛋白. The experiment in a line: bridging ELISA: PD1-ECD-hFc coated, antibody titrated, then PDL1-ECD-His at 1000ng/ml, read with HRP-anti-His (both antigens bound at once).

T2 sequence (Q9NZQ7 19-290 limits assumed): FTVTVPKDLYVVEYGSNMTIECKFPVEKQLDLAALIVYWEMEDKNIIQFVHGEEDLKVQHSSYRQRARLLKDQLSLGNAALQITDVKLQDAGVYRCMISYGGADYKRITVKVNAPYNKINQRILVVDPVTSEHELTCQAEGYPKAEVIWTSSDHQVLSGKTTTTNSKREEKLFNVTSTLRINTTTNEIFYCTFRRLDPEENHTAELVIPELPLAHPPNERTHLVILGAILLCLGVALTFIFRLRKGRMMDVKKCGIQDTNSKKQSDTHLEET
Sequence of PD-L1 on PD-L1 aAPC/CHO-K1 cells (Promega PD-1/PD-L1 Blockade Bioassay) (Q9NZQ7 19-290 limits assumed): as above
T1 sequence (Q9NZQ7 other isoform, or with tags, fused parts or gaps): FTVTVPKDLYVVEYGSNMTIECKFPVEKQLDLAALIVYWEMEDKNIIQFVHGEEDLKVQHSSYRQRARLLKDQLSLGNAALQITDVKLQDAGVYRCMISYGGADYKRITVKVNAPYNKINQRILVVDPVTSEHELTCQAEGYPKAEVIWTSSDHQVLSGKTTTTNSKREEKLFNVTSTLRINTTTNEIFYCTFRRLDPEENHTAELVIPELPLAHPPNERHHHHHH
T3 sequence (Q15116 25-170): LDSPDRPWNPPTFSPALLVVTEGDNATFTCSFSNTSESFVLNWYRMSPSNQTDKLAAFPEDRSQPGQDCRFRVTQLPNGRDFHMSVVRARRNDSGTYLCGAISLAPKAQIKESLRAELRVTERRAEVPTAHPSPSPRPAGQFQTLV
Sequence of PD-1 on PD1 effector cells (Promega PD-1/PD-L1 Blockade Bioassay) (Q15116 25-288 limits assumed): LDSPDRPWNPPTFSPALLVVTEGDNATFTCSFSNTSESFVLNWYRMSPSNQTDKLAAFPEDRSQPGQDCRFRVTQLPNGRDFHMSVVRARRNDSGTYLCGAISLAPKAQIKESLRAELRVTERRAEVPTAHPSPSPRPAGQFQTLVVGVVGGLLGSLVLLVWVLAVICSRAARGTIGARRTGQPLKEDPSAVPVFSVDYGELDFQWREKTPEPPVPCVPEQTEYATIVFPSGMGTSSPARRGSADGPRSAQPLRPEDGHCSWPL
T4 sequence (Q15116 25-288 limits assumed): as above

B1: 抗PD-L1单抗 (M8) (antibody, human IgG1, kappa, V domains shown)
VH: QVQLQQSGGGLVKPSQSLSLTCTVSGFSLTSYGVHWVRQPPGKGLEWIGLIWSGGGTDYNPSLKSRLTISRDTSKNQVSFKISSLTAADTAVYYCARQLGLRAMDYWGQGTSVTVSS
VL: EIVLTQSPDFLSVTPKEKVTITCRASQSIGTTIHWYQQKPDQSPKLLIKYASQSFSGVPSRFSGSGSGTDFTLTINSVEAEDAATYYCQQSNSWPLTFGAGTKLEIKR
notes: also called 抗人PD-L1单抗M8; anti-PD-L1 mAb
In the case of B1, the “IC50, luminescence (PD-1/PD-L1 Blockade Bioassay)” value in assay [1] is 0.42 nM. In addition, the values for the EC50 in the assay with PDL1-ECD-His蛋白 and in the assay with PD-L1 on N87-PDL1 cells were 0.27 nM and 0.11 nM, respectively.

B2: anti-PD1×PDL1 BsAb (bispecific antibody, human IgG1, kappa)
heavy: not shown
light: EIVLTQSPDFLSVTPKEKVTITCRASQSIGTTIHWYQQKPDQSPKLLIKYASQSFSGVPSRFSGSGSGTDFTLTINSVEAEDAATYYCQQSNSWPLTFGAGTKLEIKRTVAAPSVFIFPPSDEQLKSGTASVVCLLNNFYPREAKVQWKVDNALQSGNSQESVTEQDSKDSTYSLSSTLTLSKADYEKHKVYACEVTHQGLSSPVTKSFNRGEC
notes: also called 抗PD1×PDL1双抗; 抗PD1×PDL1双特异性抗体
For the molecule B2, the “IC50, luminescence (PD-1/PD-L1 Blockade Bioassay)” value in assay [2] and in assay [1] was 0.24 nM each time. The concentration giving a half-maximal response (EC50) with PD1-ECD-hFc蛋白 [3] turned out to be 0.3 nM; with PDL1-ECD-His蛋白, 0.29 nM; in the assay with PD-L1 on N87-PDL1 cells it was 0.15 nM; in assay [4], 1.43 nM; in the assay with PD1-ECD-hFc蛋白 [5] it was 0.36 nM.
